Test results as given in publication PMC428907.

What was measured:
purified protein [1] = substrate: Nc1nc2c([nH]c(=O)n2[C@H]2C[C@H](O)[C@@H](COP(=O)(O)OP(=O)(O)O)O2)c(=O)[nH]1; assay: purified protein; conditions: pH 9.4, 7.5 mM Mg2+ (optimal conditions), 37°C
purified protein [2] = substrate: Nc1nc2c(ncn2[C@H]2C[C@H](O)[C@@H](CO[P@](=O)(O)OP(=O)(O)O)O2)c(=O)[nH]1; assay: purified protein; conditions: pH 9.4, 7.5 mM Mg2+ (optimal conditions), 37°C

B1: DR0975 protein (Deinococcus radiodurans R1 = ATCC 13939 = DSM 20539) (protein)
chain: MGRRDLLVAAGILRDRFGRVLLVGNDWQGHGRVRHTLPGGVVEHGETLPEALYREIYEETGLKLTGIKHMAYTVHIEDERRGERAIAVAFEATWEGLLNPADPDGFIVEARFCTVDEALDKLDSPPMREPLADYLNTGEPGRFYAFKGWDGRGGLRIPTLKPVVKDR
Purified protein [1]
  Km: 170 µM
  kcat: 0.13 s⁻¹
Purified protein [2]
  Km: 110 µM
  kcat: 0.18 s⁻¹
